Patent publication US20250269026A1 (CHENGDU KELUN PRECISION BIOTECHNOLOGY, published 2025)

B1: G16-CAR (other)
chain: QVQLVQSGAEVTKPGASVKVSCRASGYPFSNFFMNWVRQAPGQGLEWMGIINPIGGSTTYAQKFQGRVTMTRDTSTDTVYMELSSLRSDDTAVYYCARSSSHLGAFDIWGQGTMVTVSSASGGGGSGGRASGGGGSDIQLTQSPSSVSASVGDRVTITCRASQSISTWVAWYQHKPGVAPKLLIYASPTLQSGVPSRFSGSGSGTDFTLTISSLQSEDFATYYCQQAHSFPITFGQGTRLEIKRTTTPAPRPPTPAPTIASQPLSLRPEACRPAAGGAVHTRGLDFACDIYIWAPLAGTCGVLLLSLVITLYCKRGRKKLLYIFKQPFMRPVQTTQEEDGCSCRFPEEEEGGCELRVKFSRSADAPAYKQGQNQLYNELNLGRREEYDVLDKRRGRDPEMGGKPRRKNPQEGLYNELQKDKMAEAYSEIGMKGERRRGKGHDGLYQGLSTATKDTYDALHMQALPPR
notes: Chimeric antigen receptor on lentivirus-transduced human T cells; the signal peptide is left out here; also called G16 chimeric antigen receptor
B2: G5-CAR (other)
chain: QVQLVQSGGGLVQPGRSLRLSCAASGFTFDDYAMHWVRQAPGKGLEWVSGISWNSGSIGYADSVKGRFTISRDNAKNSLYLQMNSLRAEDTALYYCAKDMGSSGWSPVDYWGQGTLVTVSSASGGGGSGGRASGGGGSDIQVTQSPSSLSASVGDRVTITCRASQGINHYLAWYQQKPGKAPKLLIYGASTLQTGVSSRFSGSGSGTEFTLTISSLQPEDFATYYCQQLNGYPLGYTFGQGTKVEIKRTTTPAPRPPTPAPTIASQPLSLRPEACRPAAGGAVHTRGLDFACDIYIWAPLAGTCGVLLLSLVITLYCKRGRKKLLYIFKQPFMRPVQTTQEEDGCSCRFPEEEEGGCELRVKFSRSADAPAYKQGQNQLYNELNLGRREEYDVLDKRRGRDPEMGGKPRRKNPQEGLYNELQKDKMAEAYSEIGMKGERRRGKGHDGLYQGLSTATKDTYDALHMQALPPR
notes: Chimeric antigen receptor on lentivirus-transduced human T cells; the signal peptide is left out here; also called G5 chimeric antigen receptor

Molecular target: biotin-labeled MSLN antigen (UniProt Q13421 296-580, limits assumed, biotin label (site not stated))
Sequence (Q13421 other isoform, or with tags, fused parts or gaps limits assumed): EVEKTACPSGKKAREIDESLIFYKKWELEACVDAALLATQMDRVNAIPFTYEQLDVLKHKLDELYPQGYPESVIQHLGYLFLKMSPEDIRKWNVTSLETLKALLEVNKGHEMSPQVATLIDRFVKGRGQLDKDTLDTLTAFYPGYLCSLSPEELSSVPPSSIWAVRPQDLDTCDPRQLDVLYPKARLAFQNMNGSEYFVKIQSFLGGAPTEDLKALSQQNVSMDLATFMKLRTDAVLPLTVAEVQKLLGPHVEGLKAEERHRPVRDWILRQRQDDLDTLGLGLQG
Experiment: flow cytometry; CAR-T cells labeled with biotin-labeled MSLN antigen, detected with fluorescent streptavidin
From the text: The nucleic acid sequence encoding the CAR was expressed under the drive of promoter, and the lentivirus-transfected T cells were labeled with biotin-labeled MSLN antigen, and then detected with fluorescently labeled streptavidin, and determined by flow cytometry, which reflected the expression level of the CAR on the surface of T cells. The CAR positive rate of the CAR-T cells obtained in Example 3 was detected by the above method, and the FACS detection results were shown in the following table.

Binder | CAR positive rate
B1 | 41.5%
B2 | 50.5%
